From the nanobody polyreactivity screen of Harvey et al. (2022)

Experiment: yeast display, Sf9 membrane polyspecificity reagent, FACS + sequencing; frameworks hold sequencing errors
Summary of the method: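 Using colony PCR, genes from sorted yeast display clones were amplified, then sequenced on MiSeq at 2 × 250 and filtered by CDR length. The clones had been stained with 10% biotinylated, detergent-solubilized Sf9 membrane reagent for 1 hour at 4 °C and sorted by FACS into low and high (top ~1%) gates on anti-HA and streptavidin fluorescence. Polyreactivity labels come from the gate of origin.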

Sequence	polyreactivity (PSR sort gate)
QVQLVESGGGLVQAGGSLRLSCAASGRTFDLNDMGWYRQAPGKERELVAGINSGGSTKYADSVKGRFTISRDNAKNTVSLQMNSLKPEDTAVYYCATRWPGGSRWPFYLTYDYWGQGTQVTVSS	low polyreactivity
QVQLVESGGGLVQAGGSLRLSCAASGSIFSSNAMGWSRQAPGKERELVASIRRGGSTYYADSVKGRFTISRDNAKNTVYLQMNSLKPEDTAVYDCARRYVPWYATYDHWGQGTQVTVSS	high polyreactivity
QVQLVESGGGLVQAGGSLRLSCAASGRTLHAYTMGWYRQAPGKERELVAAITRGGGNTYYADSVKGRFTISRDNAKNTVYLQMNSLKPEDTAVYYCAKDYGYQGHTRTLYWAYLEYDYWGQGTQVTVSS	low polyreactivity
QVQLVESGGGLVQAGGSLRLSCAASGRTFYYYAMGWYRQAPGKERELVARISRGGSTNYADSVKGRFTISRDNAKNTVYLQMNILKPEDTAVYYCAKTISYTGRFWGYDYWGQGTQVTVSS	high polyreactivity
QVQLVESGGGLVQAGGSLRLSCAASGFIFPYNAMGWYRQAPGKERELVAAITYRDGSTYYPDSVKGRFTISRDNANNTVYGQMNSLKPEDTAVYYCAADRYVYWDLYGYWGQGTQVTVSS	low polyreactivity
QVQLVESGGGLVQAGGSLRLSCAASGRTFYPYVMGWYRQSPGKERELVASISWSGGSTYYADSVKGRFTFSRDNAKNSVYLQMNSLKPEDTAVYYCAALWPYGYWGQGTQVTVSS	low polyreactivity
QVHLVDSGGGLVQAGGSLRLSCAASGSIIVFYAMGWYRQAPGKERELVAAITDSGSTNYADSVKGRFTISRDNAKNTVYLQMNSLKPEDTAVYYCDWSYYVLRRYRVARYDSGGQGTQVTVSS	low polyreactivity
QVQLVESGGGLVQAGGSLRLSCADSGRIFGSNAMGWYRQAPGKERELVAAISWRGASTYYADSVKGRFTISRDNAKNTVYLQMNSLKPEDTAVYYCATRGQTRTTTRYYSWGQGTQVTVSS	high polyreactivity
QVQLVESGGGLVQAGGSLRLSCAASGSTFYRYAMGWYRQAPGKERELVAAISSSGGSTYYADSVKGRFTISRDNAKNTVYLQMNSLKPEDTAVYYCNADVHSQYDYWGQGTQVTVSS	low polyreactivity
QVQLVESGGGLVQAGGSLRLSCAASGSTFYRYPMGWYRQAPGKEREFVAAISGSGGSTRYADSVKGRFTISRDNAKKTVYLQMNSLKPEDTAVYYCAARSRYGYITFDYWGQGTQVTVSS	high polyreactivity
QVQLVESGGGLVQAGGSLRLSCAASGSTFVYYAMGWYRQAPGKERELVAAISSSGGTTYYAVSEKGRFTISRDYGKNTGYLLMNSLKPEDTAVYFCAAPYASRGYEYWGQGTQVTVSS	high polyreactivity
QVQLVESGGGLVQAGGSLRLSCAASGSTFTRYAMGWYRQAPGKERELVAAITRSGGGTYYADSVKGRFTISRDNAKNTVYLQMNSLKPEDTAVYYCAKDIVFYGAPGYGYWGQGTQVTVSS	high polyreactivity
QVQLVESGGGLVQAGGSLRLSCAASGSTFYPYAMGWYRQATGKERELVAAISYSGGSKYYADSVKGRFTISRDNAKNTVYLQMNSLKPEDTAVYYCAAYYRVYGASYDYWGQVTQVTVSS	high polyreactivity
QVPRVESGGGLVQAGGSLRLSCAASGFTFRFYDMGWYRQARGNERELVAAISWSGTSTYYADSVKGRFTISRDNAKNTVYLQMNSLKPEETAVYYCAADIIGYEFDYWGQGTQVTVSS	high polyreactivity
QVQLVESGGGLGQAGGSLRLSCAASGSTFIDNAMGWYRQAPGKERELVAAINSSGGNTYYADSVKWRFTISRDNAKNTVYLQMNSLKPEDTAVYYCNAEFYVLYFYDYEYWGQGTQVTLSS	low polyreactivity
QVQLVESGGGLVQAGGSLRLSCAASGLISTYYVMGWYRQAPGQERELVAAIRASDASTYYADSVKGRFTISRDNAKNPVYLQMHSLKPEDTAVYYCAAETGFYSRFAFHRYNYWGQGTQVTVSS	low polyreactivity
QVQLVESGRGLVQAGGSLRLSCAASGFTFRRYAMVWYRQAPGKERELVAAITRNGGSTYYADSVKGRFTISRDNAKNTVYFQMNRLKPEDTEVYYCNAVLYTPVYDGFDSWGQGTQVTVSS	high polyreactivity
QVQLVESGGRLVQAGGSLRLICAASGGIFGFNAMGWYRQAPGKERELVADISDGVRTNYADSVKWRFTISRDNAKNTVFLQMNSLKPEDTAVNYCATDGVYYVDGSWTLGYWGLGTQVTVSS	low polyreactivity
QVQLVESGGGLVQAGGSLRLSCAASGSIFQFYAMGWYRQAPGKERELVAVITTSGVSTYYADSVKGRFTISRDNAKNTVYLQMNSLKPEATAVYYCAADDYYLAGDYWGQGTQVTVSS	low polyreactivity
QVQLVESGGGLVQAGGSLRLSCAASGINFYYNAMGWYRQAPGKERELVATISWSDTSTYYADSVKGRFTISRDNAKNTVFLQMNSLKPEDTAGYYCATDGRETWLPEYYWGQGTQVTVSS	low polyreactivity
QVHLVESGGGLVQAGGSHRLSCAASGRTFDNYAMGWYRQAPGKERELVAAISRRGGSTYYADSVKGRFTISRDNAKNTVYLQMNSLKPEDTAVYYCAADRLVWKPTVVGFYYWGQGTQVTVSS	high polyreactivity
QVQLGESGGGLVQAGGSLRLSCAASGFTFHKNAMGWYRQAPGKERELVAVISQSASSTYYSDSVKGRFTISRDIAKITVYLQMNGLKPEDTAVYYCNAKYYRYNRRNYWGQGTQVTVSS	high polyreactivity

Sequence	polyreactivity (PSR sort gate)
QVQLVESGGGLVQAGGSLRLSCAASGGTFGYYTMGWYRPAPGKERELVSAISSGGGTDYADSVKGRFTISRDNAKNTVYLQMNSLKPEDTAVYYCNAKWLEWHYVFLPSYTMDYWGQGTQVTVSS	low polyreactivity
QVQLVESGGGLVQAGGSLRLSCAASGSIFSLYAMGWYRPAPGKERELVAGISRSGGSTYYADSVKGRFTISRDNAKNTVYLQMNSLKPEDTAVYYCAARVKVRDFKGYYWGQGTQVTVSS	high polyreactivity
QVQLVESGGGLVQAGGSLRLSSAASGSLFDGNAMGWYRQAPGKEREFVAAITSSDGSTSYADSVKGRFTISRDNAKNTVYLQMNSLKPEDTAVYYCNVDDYFWPGAKFDYWGQGSQVTVSS	low polyreactivity
QVQLVESGGCLVQAGGSLRLSCAASGFTFIRYAMGWYRQAPGKERELVAAITVSGTRTYYADSVKGRFTISRDNAKNTVYLQMNSLKPEDTAVYYCNARDVYTGYGMGYWGQGSQVTVSS	high polyreactivity
HVQLVESGGGLVQAGGSLRLSCAASGFIIADNAMGWDRQAPGKERELVAAISSSGGSTYYADSVKARFTISRDNAKNTVYLQMNSLKPVDTAVYYCAARTYHPRYVRPTFYYWGQGTQVTVSS	low polyreactivity
QVQLVESGGGLVQAGGSLRLSCAASGFIFPNNAMGWYRHAPGKERELVARISYGGGDTHYADSVKGRFTISRDNAKNTVYLQMNSLKPEDTAVYYCAVKDGQDDYWGQGTQVTVSS	low polyreactivity
QVQLVESGRGLVQAGGRQRLSSAASGTTFGRYAMGWTRQAPGKQRELVAAISESDGSTYYADSVKGRFTISRDNAKNTVYLQMNSLTPEDTSVYYCAAEWTHYWWYQYDYWGQGTQVTVSS	high polyreactivity
QVQLVESGGGLVQAGGSLRLSCAASGSIFRSYAMGWYRQAPGKERELVATIDRSGGSTYYADSVKGRFTISRDNAKNTVYLQMNSLKPEDTAVYYCNKTPHFPRPGFNYWGQGTQVTVSS	low polyreactivity
QVQLVESGGGLVQAGGSLRLSCAASGSTFDPYAMGCYRQAAGKEREFVAYIDSSVGSTFYADSVKGRFTISRDNAKNTVYLQMNSLKPEDTAVYYCAAASRVAKGRWRLYDYWGQGTQVTVSS	high polyreactivity
QVQLVESGGGLVQAGASLRLSCAASGSTFDQYVMGWYRQAPCKERELVAAISRRGGSTYYADSVKGRFTISRDNEKNTVYLQMNSLQPEDTAVYYCAAPSYYRYDYWGQGTQVTVSS	high polyreactivity
QVQLVESGGGLVQAGGSLRLSCAASGRTFWIYAMGWYRQAPGKERELVAAITGSGGSTYYADSVKGRFTISRDNAKNTVYLQMNSLKPEDTAVYYCNARVPDSYKWSAYYSHDYWGQGTQVTVSS	low polyreactivity
QVQLVESGGGLVQAGGSLRLSCAASGRIFGPYTMGWYRQAPGKERELVARISRRGGSTYYADSVKGRFTISRDNAKNTVYLQMNSLKPEDTAVYYCARSQAVYDGWFAKFGYWGQGTQVTVSS	low polyreactivity
QVQLVESGGGLVQAGGSLRLSCAASGFIFGKNDMGWYRQAPGKERELVAAITIGGSTNYADSVKGRFTISRDNAKNTVYLQMNSLTPEDTAVYYCGADATSLYNYWGLGTQVTVSS	low polyreactivity
QVPLVESGGGLVQAGGSLRLSCAASGSTFRRYGMGWYREAPGKERELFAAISKGGTRTYYADSVKGRFTISRDNAKNTVYLQMNSLKPEDTAVYYCNKAWYAYGPVYASWYGEYDYWGLGTQVTVSS	high polyreactivity
QVQLVESGGGLVQAGGSLRLSCAASGLIFDGNAMGWYRPAPGKERELVADITGSSVRTYYADSVKGRFTISRDNAKNTVSLQMNSLIPEDTAVYYCAATYGYLYTGLSRYDYWGQGTQVTVSS	low polyreactivity
QVQLVESGGGLVQAGGSLRLSCAASGRTFWNYAMGWYRQAPGKEREMVAVIRFSDGSTYYADSVKGRFTISRDNAKNTVYLQMNSLKPEDTAVYYCAAKGPRRWGSGFDYWGQGTQVTVSS	low polyreactivity
QVQLVESGGGLVQAGGSLRLSCAASGSNFSFYAMGWYRQAPGKERELVAAISYSGGSTYYADSVKGRFTISRDNAKNTVYLQINSLKPEDTAVYYCNSDIYRHHGWVPGGYRGQGTQVTVSS	low polyreactivity
QVQLVESGGGLVQAGGSLRLSCAASGRTFKPYVMGWYRQAPGKERELVAAISSRGDITYYADSVKCRFTISRHNAKNTVYLHMNSLKPEDTAVYYCNAGPAVRSAYSTPYYDYWGQGTQVTVSS	low polyreactivity
QVQLVESGGGLVQAGGSLRLSCAASGRTFDRNAMGWYRQAPGKERELVAAITSRGGRTYYADSVKGRFTISRDNAKNTVYLQMNSLKPEDTAVYYCNAARGWGYDSWGQGTQVTVSS	high polyreactivity
QVQLVESGGGLVQAGGSLRLSCAASGSIFPTYAMGWYRQAPGKERELVAAITGSGGSTYYADSVKGRFTISRDNAKNTVYLQMNSLKPEDTAVYYCAKDVYWYGVWYDYWGQGTQLTVSS	high polyreactivity
QVQLVESGAALVQAGGSLRLSCAASGRTFWFNAMGWYRQPPGKERELVASISLSVGSTYYADSVKGRFTISRDNAKNTVYLQMNSLKAEDTAVYNCAADQTVHISSYDYWGQGTQVTVSS	low polyreactivity
